Reference: patent US20230399412A1 (NANJING IASO BIOTECHNOLOGY, published 2023)

Key:
[1] = biological target: T1, Human CD70/CD27 Ligand Protein-his-Trimer (Kactus, CD7-HM271-1) (human, UniProt P32970 39-193); experiment: phage ELISA
T1 construct: Bought reagent, named a trimer; also called Kactus-CD70 Trimer-his; Kactus-CD70Trimer-his; not shown: His tag (and any trimerisation part)
T1 sequence (looked up): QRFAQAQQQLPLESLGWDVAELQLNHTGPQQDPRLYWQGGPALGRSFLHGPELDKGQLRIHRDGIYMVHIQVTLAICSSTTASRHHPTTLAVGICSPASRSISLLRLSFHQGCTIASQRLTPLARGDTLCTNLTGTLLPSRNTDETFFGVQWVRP

[2] = biological target: T2, Biotinylated Human CD27 Ligand, Avitag, human Fc Tag (ACRO biosystem, TN7-H82F4) (human, UniProt P32970 39-193, biotinylated (Avitag)); experiment: phage ELISA
T2 construct: Bought reagent; also called Acro-CD70-Fc-Bio; not shown: human Fc tag and Avitag
T2 sequence (looked up): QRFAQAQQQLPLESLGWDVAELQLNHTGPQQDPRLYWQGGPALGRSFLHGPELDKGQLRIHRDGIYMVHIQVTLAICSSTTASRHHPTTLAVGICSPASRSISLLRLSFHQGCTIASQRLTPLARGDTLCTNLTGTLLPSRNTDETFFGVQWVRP

[3] = biological target: T3, Biotinylated Human CD27 Ligand, HIS, Avitag (ACRO biosystem, CDL-H82Q9) (human, UniProt P32970 39-193, biotinylated (Avitag)); experiment: phage ELISA
T3 construct: Bought reagent; also called Acro-CD70-his-Bio; CD70-his-Bio; not shown: His tag and Avitag
T3 sequence (looked up): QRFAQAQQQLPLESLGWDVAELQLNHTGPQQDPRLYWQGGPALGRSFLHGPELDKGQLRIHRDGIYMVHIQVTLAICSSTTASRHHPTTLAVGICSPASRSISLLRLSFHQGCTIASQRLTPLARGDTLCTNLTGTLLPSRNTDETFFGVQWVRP

[4] = biological target: T4, Human CD70/CD27 Ligand Protein (human FC Tag)-Biotin (Kactus, CD7-HM270) (human, UniProt P32970 39-193, biotinylated); experiment: phage ELISA
T4 construct: Bought reagent; also called Kactus-CD70-Fc-Bio; Katcus-CD70-Fc-Bio; not shown: human Fc tag
T4 sequence (looked up): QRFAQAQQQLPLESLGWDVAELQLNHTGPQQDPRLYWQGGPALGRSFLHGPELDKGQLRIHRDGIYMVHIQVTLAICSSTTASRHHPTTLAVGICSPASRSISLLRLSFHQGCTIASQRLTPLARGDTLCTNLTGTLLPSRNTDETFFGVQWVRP

[5] = biological target: T5, Biotinylated Human Siglec-2/CD22 Protein, human Fc, Avitag (ACRO biosystem, SI2-H82F8) (human, UniProt P20273 20-687, biotinylated (Avitag)); experiment: phage ELISA
T5 construct: Irrelevant control antigen; also called Acro-CD22-Bio; CD22-Fc-Bio; not shown: human Fc and Avitag
T5 sequence (looked up): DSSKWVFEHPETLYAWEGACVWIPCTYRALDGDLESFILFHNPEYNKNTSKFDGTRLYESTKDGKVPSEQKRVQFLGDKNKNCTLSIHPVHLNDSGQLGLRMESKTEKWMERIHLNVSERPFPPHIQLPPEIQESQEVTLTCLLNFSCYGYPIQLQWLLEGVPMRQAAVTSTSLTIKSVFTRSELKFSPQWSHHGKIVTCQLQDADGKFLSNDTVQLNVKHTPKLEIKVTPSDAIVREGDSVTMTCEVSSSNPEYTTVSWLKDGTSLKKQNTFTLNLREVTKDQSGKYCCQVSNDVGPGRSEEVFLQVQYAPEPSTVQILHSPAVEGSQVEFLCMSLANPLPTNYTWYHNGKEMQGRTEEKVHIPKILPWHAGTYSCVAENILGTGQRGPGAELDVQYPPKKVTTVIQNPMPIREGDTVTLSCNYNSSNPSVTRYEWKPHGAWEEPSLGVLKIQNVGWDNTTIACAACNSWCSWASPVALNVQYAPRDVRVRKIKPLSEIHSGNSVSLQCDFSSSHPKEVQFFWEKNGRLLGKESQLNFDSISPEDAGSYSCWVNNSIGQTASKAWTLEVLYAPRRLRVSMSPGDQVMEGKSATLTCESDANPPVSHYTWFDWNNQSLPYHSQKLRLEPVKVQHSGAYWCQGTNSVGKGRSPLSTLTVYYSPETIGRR

[6] = biological target: T6, Human CD70/CD27 Ligand Protein-his-Trimer-Biotin (Kactus, CD7-HM271) (human, UniProt P32970 39-193, biotinylated); experiment: phage ELISA
T6 construct: Bought reagent, named a trimer; also called Kactus-CD70Trimer-his-Bio; Katcus-CD70 Trimer-His-Bio; not shown: His tag (and any trimerisation part)
T6 sequence (looked up): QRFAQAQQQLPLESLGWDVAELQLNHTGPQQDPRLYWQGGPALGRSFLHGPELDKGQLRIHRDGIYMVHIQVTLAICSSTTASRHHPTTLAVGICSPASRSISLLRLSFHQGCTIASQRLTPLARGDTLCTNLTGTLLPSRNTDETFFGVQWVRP

[7] = biological target: T7, CD70 on the cell surface of CD70-positive cell lines (UniProt P32970 1-193, limits assumed); experiment: phage FACS on CD70-positive cell lines (Raji, U266)
T7 construct: whole, on cells; One molecule for all cell lines; the cell line is named under assay; also called natural CD70 on the cell surface; CD70 antigen on Raji, U266, THP-1, RS4:11, REH, Molm-13 cells
T7 sequence (looked up): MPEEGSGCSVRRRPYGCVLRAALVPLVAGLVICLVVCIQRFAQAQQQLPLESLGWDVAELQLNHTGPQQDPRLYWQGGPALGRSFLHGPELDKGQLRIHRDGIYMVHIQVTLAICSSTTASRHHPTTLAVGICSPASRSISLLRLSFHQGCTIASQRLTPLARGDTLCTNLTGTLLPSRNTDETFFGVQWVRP

B1: phage monoclonal antibody clone #9 (VHH)
VHH: EVQLLESGGGLVQPGGSLRLSCAASGFTFNIDAMGWVRQAPGKGLEWVSSISSSGGTTYYADSVKGRFTISRDNSKNTLYLQMNSLRAEDTAVYYCARSRYSVPDGRGSYDVWGQGTLVTVSS
notes: single-domain antibody (heavy chain variable region alone); also called VHH 09; 09 antibody
B1: binds [1]; binds [2]; binds [3]. B1: binds [4]; no binding [5]; binds [6]. B1: binds [7].

B2: phage monoclonal antibody clone #20 (VHH)
VHH: EVQLLESGGGLVQPGGSLRLSCAASGFTFSSYAMGWVRQAPGKGLEWVSSISGYGEETYYADSVKGRFTISRDNSKNTLYLQMNSLRAEDTAVYYCARFYYRYWKEFDYWGQGTLVTVSS
notes: single-domain antibody (heavy chain variable region alone); also called VHH20; VHH 20
B2: binds [1]; binds [2]; binds [3]. B2: binds [4]; no binding [5]; binds [6]. B2: binds [7].

B3: phage monoclonal antibody clone #21 (VHH)
VHH: EVQLLESGGGLVQPGGSLRLSCAASGFTFSNYAMGWVRQAPGKGLEWVSSITGLGGNMYYADSVKGRFTISRDNSKNTLYLQMNSLRAEDTAVYYCARMYYSQGVNNYSYPSTDIWGQGTLVTVSS
notes: single-domain antibody (heavy chain variable region alone); also called VHH21; VHH 21
B3: binds [1]; binds [2]; binds [3]. B3: binds [4]; no binding [5]; binds [6]. B3: binds [7].

B4: phage monoclonal antibody clone #6 (scFv)
scFv: QAVLTQPPSASATPGQRVSISCSGSSSNIGRNTVNWYQHLPGTAPKLLIYSNDHRPSGVPDRFSGSQSGTSASLAISGLQSEDEADYYCASWDDSLTGWVFGGGTKVTVLGSRGGGGSGGGGSGGGGSLEMAQVQLVQSGAEVKKAGSSLKVSCKANGGSFTNYLINWVRQAPGQGLEWMGGIIPVYGTPIYSQKFQGRVTFTADEPTRTAYMELSSLTFEDTAVYYCVREDEGYGDLYLAYWGQGTLVTVSS
notes: also called scFv 06; Scfv06
B4: binds [1]; binds [2]; binds [3]. B4: binds [4]; no binding [5]; binds [6]. B4: binds [7].

B5: phage monoclonal antibody clone #13 (VHH)
VHH: EVQLLESGGGLVQPGGSLRLSCAASGFTFSSEAMGWVRQAPGKGLEWVSSINGSGRNTYYADSVKGRFTISRDNSKNTLYLQMNSLRAEDTAVYYCARKHGEYYDSGYDVWGQGTLVTVSS
notes: single-domain antibody (heavy chain variable region alone); also called VHH13; VHH 13
B5: no binding [5].
